Measured values reported in paper PMC12204343, “Regulatory Role of Serine59 in the Oligomeric Dynamics and Chaperone Function of αB-Crystallin” (Research Square, 2025).

Columns and labels:
αB-crystallin = αB-crystallin (UniProt P02511); experiment: SEC-MALS of homo-oligomer mass; TEM; conditions: reference: wild type; sites S59
Alcohol dehydrogenase = molecular target: T1, Alcohol dehydrogenase (UniProt P00330 1-348); experiment: cell-based or functional assay
T1 sequence (looked up): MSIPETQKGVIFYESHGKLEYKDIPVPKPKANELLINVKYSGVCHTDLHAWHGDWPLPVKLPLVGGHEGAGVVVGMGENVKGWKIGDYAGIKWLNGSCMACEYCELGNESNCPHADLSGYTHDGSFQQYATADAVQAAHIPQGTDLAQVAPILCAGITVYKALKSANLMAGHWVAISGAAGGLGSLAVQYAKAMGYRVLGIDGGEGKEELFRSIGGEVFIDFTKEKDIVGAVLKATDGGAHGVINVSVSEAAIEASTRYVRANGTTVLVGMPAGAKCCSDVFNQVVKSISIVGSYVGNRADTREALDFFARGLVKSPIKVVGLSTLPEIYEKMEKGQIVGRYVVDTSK

Lysozyme = Lysozyme (UniProt P00698 19-147); experiment: cell-based or functional assay
Sequence of Lysozyme (P00698 19-147): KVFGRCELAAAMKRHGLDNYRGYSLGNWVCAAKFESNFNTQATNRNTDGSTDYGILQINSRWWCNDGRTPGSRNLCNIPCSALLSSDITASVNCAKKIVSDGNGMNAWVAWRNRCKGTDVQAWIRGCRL

Luciferase = Luciferase (UniProt P08659 1-550 = luciferase); experiment: cell-based or functional assay
Sequence of Luciferase (P08659 whole entry): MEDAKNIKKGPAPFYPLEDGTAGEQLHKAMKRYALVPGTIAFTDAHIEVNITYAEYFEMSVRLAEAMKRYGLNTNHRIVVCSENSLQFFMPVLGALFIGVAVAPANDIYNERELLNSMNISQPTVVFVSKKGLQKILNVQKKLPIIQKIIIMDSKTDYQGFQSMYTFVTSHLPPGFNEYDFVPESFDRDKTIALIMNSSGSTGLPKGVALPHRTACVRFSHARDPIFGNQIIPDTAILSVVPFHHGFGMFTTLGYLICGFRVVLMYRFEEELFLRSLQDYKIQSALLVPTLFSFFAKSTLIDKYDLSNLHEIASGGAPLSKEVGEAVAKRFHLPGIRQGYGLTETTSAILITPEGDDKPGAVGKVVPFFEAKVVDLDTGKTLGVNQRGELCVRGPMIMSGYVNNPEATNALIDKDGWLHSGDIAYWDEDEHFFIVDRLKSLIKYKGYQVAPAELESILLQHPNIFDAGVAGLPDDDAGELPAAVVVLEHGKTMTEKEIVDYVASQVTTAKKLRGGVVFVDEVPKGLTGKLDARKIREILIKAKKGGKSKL

[1] = molecular target: the molecule itself; experiment: SEC-MALS; HPLC coupled with MALS; proteins (0.15 mg in 0.05 mL) incubated at 37°C for 1 hour before analysis; self-association into oligomers
[2] = molecular target: the molecule itself; experiment: negative-stain transmission electron microscopy; 0.05 mg/mL on glow-discharged carbon grids, 2% uranyl acetate; oligomers of the chaperone protein alone

## αB-crystallin (from UniProt P02511) ΔS59
αB-crystallin
  other: average oligomeric mass: same; reference 579

## αB-crystallin (from UniProt P02511) S59D
αB-crystallin
  other: average oligomeric mass: weaker; reference 579

B1: wild-type αB-crystallin (natural protein, human, UniProt P02511 1-175, looked up)
chain: MDIAIHHPWIRRPFFPFHSPSRLFDQFFGEHLLESDLFPTSTSLSPFYLRPPSFLRAPSWFDTGLSEMRLEKDRFSVNLDVKHFSPEELKVKVLGDVIEVHGKHEERQDEHGFISREFHRKYRIPADVDPLTITSSLSSDGVLTVNGPRKQVSGPERTIPITREEKPAVTAAPKK
notes: αB-crystallin, human, wild type; forms large polydisperse oligomers; no tag is mentioned; also called αB-WT; WT-αB; source: E. coli BL21(DE3)pLysS, purified (Q-Sepharose, Superdex and Superose 6 size exclusion, ammonium sulphate)
Alcohol dehydrogenase
  EC50 of suppression of ADH (2.5 μM) aggregation, light scattering at 360 nm, 90 min, PBS + 50 mM EDTA, 37°C: 1 µM
Lysozyme
  protection against DTT-induced lysozyme (10 μM) aggregation, 2.5 μM chaperone, PBS, 2 mM DTT, 37°C, 6 hours: ~52%
Luciferase
  EC50 of suppression of luciferase (0.5 μM) aggregation, light scattering at 360 nm, 90 min, PBS, 37°C: 4.3 µM
[1]
  binding result: binds

B2: αB-crystallin S59A (natural protein, human, UniProt P02511 1-175, looked up)
chain: MDIAIHHPWIRRPFFPFHSPSRLFDQFFGEHLLESDLFPTSTSLSPFYLRPPSFLRAPAWFDTGLSEMRLEKDRFSVNLDVKHFSPEELKVKVLGDVIEVHGKHEERQDEHGFISREFHRKYRIPADVDPLTITSSLSSDGVLTVNGPRKQVSGPERTIPITREEKPAVTAAPKK
notes: αB-crystallin, human, with the substitution S59A; Made by site-directed mutagenesis; called the control mutant; also called αB-S59A; source: E. coli BL21(DE3)pLysS, purified (Q-Sepharose, Superdex and Superose 6 size exclusion, ammonium sulphate)
Alcohol dehydrogenase
  EC50 of suppression of ADH (2.5 μM) aggregation, light scattering at 360 nm, 90 min, PBS + 50 mM EDTA, 37°C: 1.4 µM
Lysozyme
  protection against DTT-induced lysozyme (10 μM) aggregation, 2.5 μM chaperone, PBS, 2 mM DTT, 37°C, 6 hours: 84%
Luciferase
  EC50 of suppression of luciferase (0.5 μM) aggregation, light scattering at 360 nm, 90 min, PBS, 37°C: 13.7 µM
αB-crystallin
  other: average oligomeric mass: stronger; reference 579
[1]
  binding result: binds

B3: αB-crystallin S59D (phosphomimetic mutant) (natural protein, human, UniProt P02511 1-175, looked up)
chain: MDIAIHHPWIRRPFFPFHSPSRLFDQFFGEHLLESDLFPTSTSLSPFYLRPPSFLRAPDWFDTGLSEMRLEKDRFSVNLDVKHFSPEELKVKVLGDVIEVHGKHEERQDEHGFISREFHRKYRIPADVDPLTITSSLSSDGVLTVNGPRKQVSGPERTIPITREEKPAVTAAPKK
notes: αB-crystallin, human, with the phosphomimetic substitution S59D; Made by site-directed mutagenesis; also called αB-S59D; αBS59D; source: E. coli BL21(DE3)pLysS, purified (Q-Sepharose, Superdex and Superose 6 size exclusion, ammonium sulphate)
Alcohol dehydrogenase
  EC50 of suppression of ADH (2.5 μM) aggregation, light scattering at 360 nm, 90 min, PBS + 50 mM EDTA, 37°C: 0.5 µM
Luciferase
  EC50 of suppression of luciferase (0.5 μM) aggregation, light scattering at 360 nm, 90 min, PBS, 37°C: 1.1 µM
[1]
  binding result: binds

B4: αB-crystallin with residues 54–61 deleted (natural protein, human, UniProt P02511 1-175, looked up)
chain: MDIAIHHPWIRRPFFPFHSPSRLFDQFFGEHLLESDLFPTSTSLSPFYLRPPSDTGLSEMRLEKDRFSVNLDVKHFSPEELKVKVLGDVIEVHGKHEERQDEHGFISREFHRKYRIPADVDPLTITSSLSSDGVLTVNGPRKQVSGPERTIPITREEKPAVTAAPKK
notes: αB-crystallin, human, with residues 54–61 deleted; also called αB-Δ54–61; αBΔ54–61
Alcohol dehydrogenase
  chaperone efficiency against ADH (2.5 μM) aggregation relative to αB-S59D, light scattering at 360 nm, 90 min, PBS + 50 mM EDTA, 37°C: 1.6 fold
Lysozyme
  protection against DTT-induced lysozyme (10 μM) aggregation, 2.5 μM chaperone, PBS, 2 mM DTT, 37°C, 6 hours: > 95%
Luciferase
  EC50 of suppression of luciferase (0.5 μM) aggregation, light scattering at 360 nm, 90 min, PBS, 37°C: 1.2 µM
[2]
  binding result: binds

B5: αB-crystallin ΔS59 (deletion of Serine 59) (natural protein, human, UniProt P02511 1-175, looked up)
chain: MDIAIHHPWIRRPFFPFHSPSRLFDQFFGEHLLESDLFPTSTSLSPFYLRPPSFLRAPWFDTGLSEMRLEKDRFSVNLDVKHFSPEELKVKVLGDVIEVHGKHEERQDEHGFISREFHRKYRIPADVDPLTITSSLSSDGVLTVNGPRKQVSGPERTIPITREEKPAVTAAPKK
notes: αB-crystallin, human, with Serine 59 deleted; Made by site-directed mutagenesis; also called αB-ΔS59; source: E. coli BL21(DE3)pLysS, purified (Q-Sepharose, Superdex and Superose 6 size exclusion, ammonium sulphate)
Alcohol dehydrogenase
  EC50 of suppression of ADH (2.5 μM) aggregation, light scattering at 360 nm, 90 min, PBS + 50 mM EDTA, 37°C: 1.2 µM
Lysozyme
  protection against DTT-induced lysozyme (10 μM) aggregation, 2.5 μM chaperone, PBS, 2 mM DTT, 37°C, 6 hours: 60%
Luciferase
  EC50 of suppression of luciferase (0.5 μM) aggregation, light scattering at 360 nm, 90 min, PBS, 37°C: 8.3 µM
[1]
  binding result: binds
